These results are taken from patent US20080227704A1 (published 2008).

The chains are these.
T1: recombinant purified mouse CXCL13 (mouse, UniProt O55038 22-109, biotinylated in the ELISA of Example 1.1.A.1 (sites not given); unlabelled in Biacore)
T1 sequence: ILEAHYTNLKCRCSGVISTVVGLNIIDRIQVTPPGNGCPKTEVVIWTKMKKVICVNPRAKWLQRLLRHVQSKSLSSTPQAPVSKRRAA

B1: XW25-2C4-4H8 (antibody, V domains shown)
VH: QVQLQQPGTELVKPGASVKLSCKASGYNFATYWMHWVKQRPGQGLEWIGNINPSDGGTNFNEKFNNKATLTVDKSSSTAYMQLSSLTSEDSAVYYCAKWGGHYVLYWYFDVWGTGTTVTVSS
VL: DIVLTQSPATLSVTPGDSVSLSCRASQSISSNLHWYQQKSHESPRLLITYASQSISGIPSRFSGSGSGTDFTLSINSVESEDVGVYFCQQSDSWPLTFGAGTKLELKR
notes: Mouse anti-mouse CXCL13 monoclonal antibody purified from hybridoma
B2: XW25-6A2-2F10 (antibody, V domains shown)
VH: B1 VH with M34V, N59S, F60Y, N65S, N66K, Q82E, Y108S
VL: B1 VL with S31N, K39R, L47I, Y50H, A51V, T72I, L73F, V83F, D92N
notes: as for B1
B3: XW25-4F2-5D2 (antibody, V domains shown)
VH: B1 VH with A30P
VL: B1 VL with S31N
notes: Mouse anti-mouse CXCL13 monoclonal antibody from hybridoma
B4: XW25-5D11-4F3-3D11 (antibody, V domains shown)
VH: EVQVQQSGAELVRPGSSVKMSCKTSGYTFTNYGIIWVKQRPGQGLEWIGYIYIGKGYTEYNEKFKGKATLTSDTSSSTVYMQLSSLTSEDSAIYFCARGAHYYGNAMDYWDQGTSVTVSS
VL: DIQMTQTTSSLSASLGDRVTISCRSSQDISNFLNWYQQRPDGTVKLLIYYTSRLHSGVPSRFSGSGSGTDYSLTISNLEQEDIATYFCQQGDTLPWTFGGGTKLEIKR
notes: as for B1
B5: XW25-3B5-3F4 (antibody, V domains shown)
VH: B1 VH with A16T, N28T, A30T, T31S, T58I, N59K, F60Y, N65K, N66S, Q82E
VL: B1 VL with S31N, T49N, S80T, V83F, V85M, D92N
notes: as for B3
B6: XW25-8H6-4F9 (antibody, V domains shown)
VH: B1 VH with F60Y
VL: B1 VL with S30N, S31N, K39E, V83F, D92N
notes: as for B3
B7: XW25-9C10-4B11 (antibody, V domains shown)
VH: B1 VH with N66S
VL: B1 VL
notes: as for B3
B8: XW25-7C7-5E5 (antibody, V domains shown)
VH: B1 VH with Q82H
VL: B1 VL with S28N, S30N, S31N, A51T
notes: as for B3

Usually EC50 stands for the concentration that produces a half-maximal response. What is called Kd is the free concentration of one partner at which half of the binding sites on the other are occupied at equilibrium, for simple one-to-one binding. Broadly, the koff is the rate constant with which the complex falls apart. The kon is the second-order rate constant of association.

Numbering of substitutions follows the chain as printed.

The first experiment concerns the target T1, recombinant purified mouse CXCL13. Kind of experiment: cell-based or functional assay.
For the molecule B1, the “Average Kb (nM) Chemotaxis Assay” value was determined as 23 nM.
The same measure, in the same setting: the figure for B2 is 8.12 nM; for B3 it is 16 nM; for B4 it is 18.9 nM.

For the next experiment the target is unchanged. Description: ELISA, antibody captured by goat anti-mouse IgG Fc, biotinylated mouse CXCL13 detected with streptavidin-HRP. As for the experimental part: ELISA plates (Corning Costar, Acton, Mass.) were coated with 50 μL/well of 5 μg/ml goat anti-mouse IgG Fc specific (Pierce # 31170, Rockford, Ill.) in Phosphate Buffered Saline (PBS) overnight at 4 degrees Celsius. Plates were washed once with PBS containing 0.05% Tween-20. Plates were blocked by addition of 200 μL/well blocking solution diluted to 2% in PBS (BioRad #170-6404, Hercules, Calif.) for 1 hour at room temperature. Plates were washed once after blocking with PBS containing 0.05% Tween-20.
Fifty microliters per well of mouse sera or hybridoma supernatants diluted in PBS containing 0.1% Bovine Serum Albumin (BSA) (Sigma, St. Louis, Mo.) was added to the ELISA plate prepared as described above and incubated for 1 hour at room temperature. Wells were washed three times with PBS containing 0.05% Tween-20. Fifty microliters of biotinylated recombinant purified mouse CXCL13 diluted to 100 ng/mL in PBS containing 0.1% BSA was added to each well and incubated for 1 hour at room temperature. Plates were washed 3 times with PBS containing 0.05% Tween-20. Streptavidin HRP (Pierce # 21126, Rockland, Ill.) was diluted 1:20000 in PBS containing 0.1% BSA; 50 μL/well was added and the plates incubated for 1 hour at room temperature. Plates were washed 3 times with PBS containing 0.05% Tween-20. Fifty microliters of TMB solution (Sigma # T0440, St. Louis, Mo.) was added to each well and incubated for 10 minutes at room temperature. The reaction was stopped by addition of 1N sulphuric acid. Plates were read spectrophotmetrically at a wavelength of 450 nm.
As for B1, the EC50 came out at 0.02 nM.
Take B2: the EC50 stood at 0.02 nM.
B5: the EC50 was found to be 0.04 nM.
The same measure, in the same setting: with B6 the figure was 0.03 nM.
Still for that read-out and setting: with B3 the figure was 0.02 nM.
As to B7, the EC50 stood at 0.01 nM.
B8: the concentration giving a half-maximal response (EC50) was found to be 0.02 nM.
Same read-out and setting: with B4 the figure was 0.03 nM.

A further experiment has the same target. Kind of experiment: SPR (Biacore), antibody captured by goat anti-mouse IgG Fc, mouse CXCL13 injected at 0.78-50 nM, 25 C. As for the experimental part:
Binding of antibodies to recombinant purified mouse CXCL13 were determined by surface plasmon resonance-based measurements with a Biacore® 2000 and 3000 instruments (Biacore® AB, Uppsala, Sweden) using running HBS-EP (10 mM HEPES pH 7.4, 150 mM NaCl, 3 mM EDTA, and 0.015% surfactant P20) at 25° C. Experimental data from all kinetic rate determinations of the antibody-antigen reaction were analyzed using Biaevaluation software version 4.0.1.
Mouse Anti Mouse CXCL13 antibodies to be captured as a ligand on the carboxymethyl dextran matrix were diluted in HBS-EP with 0.015% P20 at a concentration of 5-μg/mL. 50-100 μL aliquots were injected over the covalently coupled goat anti-mouse IgG Fc polyclonal antibody biosensor matrices at a flow rate of 25-50 μL/min. The net difference in the baseline signal and the signal after the completion of antibody injection was taken to represent the amount of bound Mouse Anti Mouse CXL13 antibody. Biosensor matrices were typically regenerated with subsequent 25 μL injections of 10 mM Glycine (pH 1.5) before the injection of the next sample. Glycine treatment disrupts the association of non-covalently bound proteins thus Anti CXCL13 antibody-mouse CXCL13 complex dissociates and washes off. The anti-mouse IgG antibody immobilized surfaces were completely regenerated. Aliquots of mouse CXCL13 antigen were injected at a flow rate of 25-50 μL/min over Anti CXCL13 purified monoclonal antibodies captured on the biosensor chips. The concentrations of mouse CXCL13 was ranging between 0.78-50 nM. HBS-EP with 0.015% P20 was flowed through each flow cell in between various cycles of antigens and also immediately before and after the end of kinetic analysis. The signal stabilized 120-180 seconds after the completion of the injection cycle. The net difference in signal between the baseline and the point corresponding to approximately 30 seconds after the completion of antigen injections was taken to represent the amount of antigen bound. The response was measured in resonance units (RU) representing the mass of bound CXCL13 antigen. CXCL13 antigen was also simultaneously injected over the goat anti mouse IgG Fc or goat IgG reference and reaction CM4 surface to record any nonspecific binding background.
For B1, the Kd came to 0.013 nM, the off-rate constant (koff) is 3.6e-05 s⁻¹ and the kon worked out at 2.7e+06 M⁻¹ s⁻¹.
For B2 the same measures were 0.002 nM, 2.7e-06 s⁻¹ and 1.6e+06 M⁻¹ s⁻¹.
As to B4, the kon was found to be 1e+06 M⁻¹ s⁻¹.
